The source of these data is patent US9540337B2, “Gamma-glutamyl transpeptidase inhibitors and methods of use” (The Board of Regents of the University of Oklahoma, priority 2012, dated 2017).

In series [1] the test system is T1, N[C@H](CCC(=O)Nc1ccc([N+](=O)[O-])cc1)C(=O)O.
T1 construct: lacking the transmembrane domain; made in house; host or cells: Pichia pastoris
Description: Initial rate studies with D-GpNA and L-GpNA, with or without acceptor GlyGly. The class given is biochemical, human. The settings on record: pH 7.4, 37.0 °C. How it is done: (§1) Transpeptidation Reaction: The same assay buffer was used for both the hydrolysis reaction and the transpeptidation reaction. The transpeptidation reaction included 40 mM glycylglycine (glygly, Sigma, St. Louis, Mo.) as the acceptor. The concentration of the substrate for the transpeptidation reaction, L-GpNA (Sigma) was varied from 0.25 mM to 3 mM. The concentration of L-GpNA was 3 mM for experiments in which the concentration of glygly was varied. To initiate the transpeptidation reaction, 4 mU GGT were added.
(§2) 1. […] 2, which describes a ping pong kinetic mechanism. […] 3 and 4. […] 5 (25).
(§3) In eq. […] Data for noncompetitive inhibition were fitted to eq. 6. […] 6 [25].
(§4) Initial Rate Studies with D-GpNA and L-GpNA: In this study, the inhibition of both the GGT hydrolysis and transpeptidation reactions by OU749 and a new series of thiadiazol sulfonamide analogs was studied. The hydrolysis and transpeptidation reactions were analyzed separately by using different stereo-isomers of the γ-glutamyl-p-nitroanilide (GpNA) substrate. The kinetics of both reactions were first characterized in the absence of inhibitors. Cleavage of the γ-glutamyl bond of either D-GpNA or L-GpNA releases p-nitroanaline, which has an OD405 of 7,680 M^−1 cm^−1, allowing for the reactions to be monitored continuously with high sensitivity. The D-glutamyl isomer of GpNA was used as the substrate for the hydrolysis reaction, in which water serves as the acceptor. The L-glutamyl isomer of GpNA, with glycylglycine (GlyGly) as an acceptor, was used for the transpeptidation reaction. L-GpNA can serve as both a substrate and a low affinity acceptor, while D-GpNA is unable to serve as an acceptor (18, 21, 26). Therefore, in the absence of an added acceptor GGT exclusively catalyzes a hydrolysis reaction with D-GpNA as the substrate. When L-GpNA is used as a substrate, the GGT reaction is a mixture of both the hydrolysis and transpeptidation reactions. Under these conditions, the rate of the reaction is the sum of hydrolysis and transpeptidation reactions, with the hydrolysis reaction contributing more at low L-GpNA concentrations and transpeptidation dominating at saturating substrate concentrations. […] However, the maximum rate (Vmax) obtained with L-GpNA was approximately 3-times faster than that measured with D-GpNA, and the KGpNA for L-GpNA was 5-times higher than that measured for D-GpNA. This is at least partially due to the ability of L-GpNA to serve as an acceptor, resulting in a transpeptidation reaction, which is faster than the hydrolysis reaction. Therefore, to study the hydrolysis reaction in isolation, D-GpNA was used as the substrate without any added acceptor.

For series [2], the system named is T2, N[C@@H](CCC(=O)Nc1ccc([N+](=O)[O-])cc1)C(=O)O.
T2 construct: lacking the transmembrane domain; made in house; host or cells: Pichia pastoris
The series is described as above. The class given is biochemical, human. The note with it: pH 7.4, 37.0 °C. As for the experimental part:
as §1, §2, §3, §4

Sequence of Human GGT1 (Homo sapiens) (chain, as listed by the source): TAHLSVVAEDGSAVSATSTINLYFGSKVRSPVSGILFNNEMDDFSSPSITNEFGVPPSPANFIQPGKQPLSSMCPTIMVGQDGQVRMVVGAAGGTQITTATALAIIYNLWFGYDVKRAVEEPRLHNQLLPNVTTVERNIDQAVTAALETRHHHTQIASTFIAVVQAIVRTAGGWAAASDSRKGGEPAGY
Sequence of Human GGT1 (Homo sapiens) (chain, as listed by the source): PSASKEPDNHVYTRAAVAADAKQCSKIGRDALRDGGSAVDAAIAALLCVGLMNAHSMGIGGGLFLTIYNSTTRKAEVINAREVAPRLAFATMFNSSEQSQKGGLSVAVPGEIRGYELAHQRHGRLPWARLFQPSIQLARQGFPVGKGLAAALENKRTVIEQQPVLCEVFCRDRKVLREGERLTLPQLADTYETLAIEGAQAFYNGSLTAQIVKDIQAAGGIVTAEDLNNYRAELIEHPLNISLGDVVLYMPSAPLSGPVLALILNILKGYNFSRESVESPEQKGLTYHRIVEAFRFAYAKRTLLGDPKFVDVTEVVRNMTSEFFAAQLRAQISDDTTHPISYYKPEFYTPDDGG

By Km is commonly meant the substrate concentration at which the rate is half of its maximum. Human GGT1 (Homo sapiens): the Km in series [1] (other: minus acceptor) was found to be 160 ± 20 µM; in series [1] (other: plus acceptor GlyGly), 4200 ± 100 µM; in series [2] (other: minus acceptor) it was 830 ± 60 µM; in series [2] (other: plus acceptor GlyGly), 1200 ± 100 µM.
